Test results: patent US20230372448A1, “THERAPEUTIC USE OF LONG-ACTING CONJUGATE OF TRIPLE AGONIST ACTING ON ALL OF GLUCAGON, GLP-1 AND GIP RECEPTORS AGAINST MULTIPLE SCLEROSIS” (HANMI PHARM. CO. ,LTD., priority 2020, published 2023)
Positions of bridges follow the written chain, without caps; N, C: chain ends. Non-standard residues stand in square brackets, D forms with d. No end group written: not given here. *: point of attachment. Acetyl(2-(4-imidazolyl)) = O=C(Cc1c[nH]cn1)*; Aib = CC(C)(N)C(=O)O

Key:
Assay in all cases: cell-based or functional assay
human GLP-1 receptor = human GLP-1 receptor (human, UniProt P43220 24-463)
human GCG receptor = human GCG receptor (human, UniProt P47871 26-477)
human GIP receptor = target: T1, human GIP receptor (human, UniProt P48546 22-466)
T1 sequence (looked up): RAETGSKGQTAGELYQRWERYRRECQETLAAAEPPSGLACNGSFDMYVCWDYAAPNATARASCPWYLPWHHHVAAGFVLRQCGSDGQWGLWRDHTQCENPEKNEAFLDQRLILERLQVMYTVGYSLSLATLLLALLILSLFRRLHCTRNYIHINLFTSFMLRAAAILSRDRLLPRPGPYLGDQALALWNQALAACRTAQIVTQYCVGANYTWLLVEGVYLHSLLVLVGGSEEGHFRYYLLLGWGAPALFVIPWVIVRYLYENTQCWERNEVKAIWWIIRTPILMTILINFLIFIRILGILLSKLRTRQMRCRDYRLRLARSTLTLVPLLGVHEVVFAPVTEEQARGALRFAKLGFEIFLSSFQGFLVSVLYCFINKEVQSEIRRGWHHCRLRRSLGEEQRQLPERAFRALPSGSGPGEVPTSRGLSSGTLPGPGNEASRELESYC

human GCG receptor, sequence (P47871 26-477): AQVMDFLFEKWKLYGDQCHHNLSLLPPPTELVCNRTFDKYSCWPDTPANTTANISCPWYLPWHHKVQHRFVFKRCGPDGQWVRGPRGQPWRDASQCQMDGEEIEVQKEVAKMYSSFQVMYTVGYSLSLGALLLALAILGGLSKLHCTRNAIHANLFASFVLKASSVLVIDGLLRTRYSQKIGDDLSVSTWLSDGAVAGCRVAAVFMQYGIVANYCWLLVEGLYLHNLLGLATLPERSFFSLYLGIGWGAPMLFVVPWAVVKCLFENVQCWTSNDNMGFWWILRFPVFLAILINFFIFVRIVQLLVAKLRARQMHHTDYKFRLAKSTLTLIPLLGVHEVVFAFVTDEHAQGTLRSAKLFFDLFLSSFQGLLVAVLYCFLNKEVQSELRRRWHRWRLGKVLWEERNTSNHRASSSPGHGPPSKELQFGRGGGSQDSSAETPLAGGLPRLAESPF

Binder	In vitro activity (%) compared with native peptide: vs GLP-1 (human GLP-1 receptor) [%]	In vitro activity (%) compared with native peptide: vs Glucagon (human GCG receptor) [%]	In vitro activity (%) compared with native peptide: vs GIP (human GIP receptor) [%]
H[Aib]QGTFTSDVSSYLDGQAAKEFIAWLVKGC (not fully specified) [triple agonist of SEQ ID NO: 1]	3.2	< 0.1	< 0.1
H[Aib]QGTFTSDYSKYLDEKRQKEFVNWLLAQKC (bridge 16-20; not fully specified) [triple agonist of SEQ ID NO: 34]	19.1	0.92	0.6
H[Aib]QGTFTSDYSKYLDEKRQKEFVQWLLDTC (bridge 16-20; not fully specified) [triple agonist of SEQ ID NO: 52]	44.1	7.5	0.3
H[Aib]QGTFTSDYSKYLDECRQKEFVQWLLNGGPSSGAPPPSG (bridge 16-20) [triple agonist of SEQ ID NO: 37]	236	6.21	2.2
H[Aib]QGTFTSDYSKYLDEKRQKEFVQWLLNTC (bridge 16-20; not fully specified) [triple agonist of SEQ ID NO: 51]	14.4	2	0.1
H[Aib]QGTFTSDYSKYLCEKRQKEFVQWLLNGGPSSGAPPPSG (bridge 16-20) [triple agonist of SEQ ID NO: 36]	37.4	0.39	0.2
H[Aib]QGTFTSDYSIAMDEIHQKDFVNWLLNTKC (bridge 16-20; not fully specified) [triple agonist of SEQ ID NO: 35]	7.5	< 0.1	1.3
{Acetyl(2-(4-imidazolyl))}-[Aib]QGTFTSDYSICMDEIHQKDFVNWLLNTK (bridge 15-19; not fully specified) [triple agonist of SEQ ID NO: 49]	29.8	< 0.1	3.3
H[Aib]QGTFTSDVSSYLLGQQQKEFIAWLVKGGGPSSGAPPPSC (not fully specified) [triple agonist of SEQ ID NO: 5]	42.1	< 0.1	< 0.1
H[Aib]QGTFTSDYSKYLDGQHAQCFVAWLLAGGGPSSGAPPPS (also: ring from underlined residues, positions not shown) [triple agonist of SEQ ID NO: 39]	13.9	0.53	< 0.1
Y[Aib]QGTFTSDYSKYLDEKRAKEFVQWLLDHHCSSGQPPPS (bridge 16-20; not fully specified) [triple agonist of SEQ ID NO: 43]	12.6	88.4	3.7
Y[Aib]QGTFTSDYSKYLDEKRAKEFVQWLLDHHPSSGQPPPSC (bridge 16-20; not fully specified) [triple agonist of SEQ ID NO: 42]	33.9	206	7.8
{Acetyl(2-(4-imidazolyl))}-[Aib]QGTFTSDKSSYLDERAAQDFVQWLLDGGPSSGAPPPSS (not fully specified; also: ring from underlined residues, positions not shown) [triple agonist of SEQ ID NO: 38]	2.3		
HGQGTFTSDCSKQLDGQAAQEFVAWLLAGGPSSGAPPPS (ends and bridges not checked) [triple agonist of SEQ ID NO: 44]	1.3	< 0.1	< 0.1
HGQGTFTSDCSKYLDEQHAQEFVAWLLAGGPSSGAPPPS (ends and bridges not checked) [triple agonist of SEQ ID NO: 46]	1.4	< 0.1	< 0.1
HGQGTFTSDCSKYMDGQAAQDFVAWLLAGGPSSGAPPPS (ends and bridges not checked) [triple agonist of SEQ ID NO: 45]	6.6	< 0.1	< 0.1
HGQGTFTSDCSKYLDGQRAQDFVNWLLAGGPSSGAPPPS (ends and bridges not checked) [triple agonist of SEQ ID NO: 48]	1.5	< 0.1	< 0.1
HGQGTFTSDCSKYLDGQRAQEFVAWLLAGGPSSGAPPPS (ends and bridges not checked) [triple agonist of SEQ ID NO: 47]	2.4	< 0.1	< 0.1
H[Aib]QGTFTSDKSKYLDERACQDFVQWLLDGGPSSGAPPPS (not fully specified) [triple agonist of SEQ ID NO: 40]	75.2	< 0.1	< 0.1
H[Aib]QGTFTSDKSKYLDECAAQDFVQWLLDGGPSSGAPPPS (not fully specified) [triple agonist of SEQ ID NO: 41]	34.3	< 0.1	< 0.1
H[Aib]QGTFTSDVSSYLLGQQQKEFIAWLVKGC (not fully specified) [triple agonist of SEQ ID NO: 4]	8.5	< 0.1	< 0.1
H[Aib]QGTFTSDYSKYLDEKRAKEFVQWLLDHHPSSGQPPPSC (bridge 16-20; not fully specified) [triple agonist of SEQ ID NO: 50]	67.4	50.5	2.7
